Experimental data: patent US20090074770A1

Key:
[1] = molecular target: human serum albumin (human) (UniProt P02768); experiment: SPR (Biacore), ratio of off rates at pH 7 and pH 5
[2] = molecular target: human serum albumin (human) (UniProt P02768); experiment: SPR (Biacore T100), serum albumin immobilized on CM5 chip, running buffer pH 7, 25 C
[3] = molecular target: human serum albumin (human) (UniProt P02768); experiment: SPR (Biacore T100), serum albumin immobilized on CM5 chip, running buffer pH 5, 25 C

Binder	Ratio pH 7/pH 5 [1]	koff [2] [s⁻¹]	koff [3] [s⁻¹]
Nanobody 4A2 (VHH, from a related filing) VHH: EVQLVESGGGLVQAGGSLRLSCAASGLSFSSYAMGWFRQAPGKEREFVAAIRRREGNSYYADSVKGRFTISRDSAKNTVYLQMNSLKPEDTALYSCAATAPHYSGSFAYAGGYDYWGQGTQVTVSS	3.54	0.00642	0.0227
Nanobody 4D3 (VHH, from a related filing) VHH: EVQLVKSGGGLVQPGGSLRLSCAASGFTFSHYQMSWVRQAPGKDVEWVSSISMLGGGTTYADSVKGRFTISRDNAKSTLVLQMNNLKVEDTAVYYCARGFSGNYYRADLGQGTQVTVSS	2.42	0.00565	0.0137
